Experiment [1] addresses T1, human CD28 protein (human, UniProt P10747 19-152).
T1 construct: bought protein coated on the ELISA plate; also called human CD28 antigen
The experiment can be described thus: ELISA, plate-coated human CD28. Details: binding strength @ 100nM: reference not given here. On the technique in general: An ELISA detects its analyte on a solid surface through an enzyme-linked reagent.

Experiment [2] deals with T2, human CTLA4 protein (human, UniProt P16410 37-162, limits assumed).
T2 construct: bought protein coated on the ELISA plate; also called human CTLA4 antigen
T2 sequence (looked up): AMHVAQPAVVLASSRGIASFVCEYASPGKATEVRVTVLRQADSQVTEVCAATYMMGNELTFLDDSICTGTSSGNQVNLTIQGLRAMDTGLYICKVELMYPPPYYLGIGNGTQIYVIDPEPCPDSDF
The experiment can be described thus: ELISA, plate-coated human CTLA4.

The text below walks through data of patent publication EP4538286A1 (Adlai Nortye Biopharma Co., Ltd., dated 2025).

What is called EC50 is the concentration giving half of the maximal effect.

T1 sequence (P10747 19-152 limits assumed): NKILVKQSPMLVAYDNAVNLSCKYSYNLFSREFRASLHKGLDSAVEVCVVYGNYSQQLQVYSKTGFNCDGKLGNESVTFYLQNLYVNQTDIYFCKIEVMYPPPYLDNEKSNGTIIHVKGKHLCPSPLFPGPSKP

B1: Abs-262 (other)
heavy: VIHVTKEVKEVATLSCGHNVSVEELCQTRIYWQKEKKMVLTMMSGDMNIWPEYKNRTIFDITNNLSIVILELRPSDEGTYECVVNKYEKDAFKREHLAEVTLSVKADGGGGSGGGGSGGGGSGGGGSGEVQLLESGGGLVQPGGSLRLSCAASGFTFSSYAMSWVRQAPGKGLEWVSGISGSGGFTYYADSVKGRFTISRDNSKNTLYLQMNSLRAEDTAVYYCAKPPRGYNYGPFDYWGQGTLVTVSSASTKGPSVFPLAPCSRSTSESTAALGCLVKDYFPEPVTVSWNSGALTSGVHTFPAVLQSSGLYSLSSVVTVPSSSLGTKTYTCNVDHKPSNTKVDKRVESKYGPPCPPCPAPEFLGGPSVFLFPPKPKDTLMISRTPEVTCVVVDVSQEDPEVQFNWYVDGVEVHNAKTKPREEQFNSTYRVVSVLAVLHQDWLNGKEYKCKVSNKGLPSSIEKTISKAKGQPREPQVYTLPPSQEEMTKNQVSLTCLVKGFYPSDIAVAWESNGQPENNYKTTPPVLDSDGSFFLYSRLTVDKSRWQEGNVFSCSVMHEALHAHYTQKSLSLSLGK
light: SYVLTQPPSVSVAPGQTARITCGGNNIGSKSVHWYQQKPGQAPVLVVYDDSDRPSGIPERFSGSNSGNTATLTISRVEAGDEADYYCQVWDSSSDHVVFGGGTKLTVLGQPKAAPSVTLFPPSSEELQANKATLVCLISDFYPGAVTVAWKADSSPVKAGVETTTPSKQSNNKYAASSYLSLTPEQWKSHRSYSCQVTHEGSTVEKTVAPTECS
notes: the paragraph that names the antibody is followed; also called CD80 IgV mutant A26C/A71E/L85N-sugemalimab fusion
Take B1: the binding result in experiment [1] and in experiment [2] was “no binding” throughout.

B2: Abs-266 (other)
heavy: VIHVTKEVKEVAKLSCGHNVSVEELAQTRIYWQKEKKMVLTLMSGDQNIWPEYKNRTIFDITNNLSIVILELRPSDEGTYECVVLKYEKDAFKREHLAEVTLSVKADGGGGSGGGGSGGGGSGGGGSGEVQLLESGGGLVQPGGSLRLSCAASGFTFSSYAMSWVRQAPGKGLEWVSGISGSGGFTYYADSVKGRFTISRDNSKNTLYLQMNSLRAEDTAVYYCAKPPRGYNYGPFDYWGQGTLVTVSSASTKGPSVFPLAPCSRSTSESTAALGCLVKDYFPEPVTVSWNSGALTSGVHTFPAVLQSSGLYSLSSVVTVPSSSLGTKTYTCNVDHKPSNTKVDKRVESKYGPPCPPCPAPEFLGGPSVFLFPPKPKDTLMISRTPEVTCVVVDVSQEDPEVQFNWYVDGVEVHNAKTKPREEQFNSTYRVVSVLAVLHQDWLNGKEYKCKVSNKGLPSSIEKTISKAKGQPREPQVYTLPPSQEEMTKNQVSLTCLVKGFYPSDIAVAWESNGQPENNYKTTPPVLDSDGSFFLYSRLTVDKSRWQEGNVFSCSVMHEALHAHYTQKSLSLSLGK
light: SYVLTQPPSVSVAPGQTARITCGGNNIGSKSVHWYQQKPGQAPVLVVYDDSDRPSGIPERFSGSNSGNTATLTISRVEAGDEADYYCQVWDSSSDHVVFGGGTKLTVLGQPKAAPSVTLFPPSSEELQANKATLVCLISDFYPGAVTVAWKADSSPVKAGVETTTPSKQSNNKYAASSYLSLTPEQWKSHRSYSCQVTHEGSTVEKTVAPTECS
notes: the paragraph that names the antibody is followed; also called CD80 IgV mutant T13K/M42L/M47Q/A71E-sugemalimab fusion
Consider B2, for which the binding result in experiment [1] and in experiment [2] was “no binding” each time.

B3: Abs-267 (other)
heavy: VIHVTKEVKEVAKLSCGHNVSVEELAQTRIYWQKEKKMVLTLMSGDMNIWPEYKNRTIFDITNNLSIVILELRPSDEGTYECVVLKYEKDAFKREHLAEVTLSVKADGGGGSGGGGSGGGGSGGGGSGEVQLLESGGGLVQPGGSLRLSCAASGFTFSSYAMSWVRQAPGKGLEWVSGISGSGGFTYYADSVKGRFTISRDNSKNTLYLQMNSLRAEDTAVYYCAKPPRGYNYGPFDYWGQGTLVTVSSASTKGPSVFPLAPCSRSTSESTAALGCLVKDYFPEPVTVSWNSGALTSGVHTFPAVLQSSGLYSLSSVVTVPSSSLGTKTYTCNVDHKPSNTKVDKRVESKYGPPCPPCPAPEFLGGPSVFLFPPKPKDTLMISRTPEVTCVVVDVSQEDPEVQFNWYVDGVEVHNAKTKPREEQFNSTYRVVSVLAVLHQDWLNGKEYKCKVSNKGLPSSIEKTISKAKGQPREPQVYTLPPSQEEMTKNQVSLTCLVKGFYPSDIAVAWESNGQPENNYKTTPPVLDSDGSFFLYSRLTVDKSRWQEGNVFSCSVMHEALHAHYTQKSLSLSLGK
light: SYVLTQPPSVSVAPGQTARITCGGNNIGSKSVHWYQQKPGQAPVLVVYDDSDRPSGIPERFSGSNSGNTATLTISRVEAGDEADYYCQVWDSSSDHVVFGGGTKLTVLGQPKAAPSVTLFPPSSEELQANKATLVCLISDFYPGAVTVAWKADSSPVKAGVETTTPSKQSNNKYAASSYLSLTPEQWKSHRSYSCQVTHEGSTVEKTVAPTECS
notes: the paragraph that names the antibody is followed; also called CD80 IgV mutant T13K/M42L/A71E-sugemalimab fusion
For B3, in experiment [1], the binding result is “no binding”. In addition, in experiment [2], it took 13.7 nM to reach a half-maximal effect (EC50) and the “binding strength @ 20nM” value is 1920%.

B4: Abs-265 (other)
heavy: VIHVTKEVKEVAKLSCGHNVSVEELAQTRIYWQKEKKMVLTLMSGDHNIWPEYKNRTIFDITNNLSIVILELRPSDEGTYECVVLKYEKDAFKREHLAEVTLSVKADGGGGSGGGGSGGGGSGGGGSGEVQLLESGGGLVQPGGSLRLSCAASGFTFSSYAMSWVRQAPGKGLEWVSGISGSGGFTYYADSVKGRFTISRDNSKNTLYLQMNSLRAEDTAVYYCAKPPRGYNYGPFDYWGQGTLVTVSSASTKGPSVFPLAPCSRSTSESTAALGCLVKDYFPEPVTVSWNSGALTSGVHTFPAVLQSSGLYSLSSVVTVPSSSLGTKTYTCNVDHKPSNTKVDKRVESKYGPPCPPCPAPEFLGGPSVFLFPPKPKDTLMISRTPEVTCVVVDVSQEDPEVQFNWYVDGVEVHNAKTKPREEQFNSTYRVVSVLAVLHQDWLNGKEYKCKVSNKGLPSSIEKTISKAKGQPREPQVYTLPPSQEEMTKNQVSLTCLVKGFYPSDIAVAWESNGQPENNYKTTPPVLDSDGSFFLYSRLTVDKSRWQEGNVFSCSVMHEALHAHYTQKSLSLSLGK
light: SYVLTQPPSVSVAPGQTARITCGGNNIGSKSVHWYQQKPGQAPVLVVYDDSDRPSGIPERFSGSNSGNTATLTISRVEAGDEADYYCQVWDSSSDHVVFGGGTKLTVLGQPKAAPSVTLFPPSSEELQANKATLVCLISDFYPGAVTVAWKADSSPVKAGVETTTPSKQSNNKYAASSYLSLTPEQWKSHRSYSCQVTHEGSTVEKTVAPTECS
notes: the paragraph that names the antibody is followed; also called CD80 IgV mutant T13K/M42L/M47H/A71E-sugemalimab fusion
As for B4, the binding result in experiment [1] and in experiment [2] was “no binding” in each case.

B5: Abs-270 (other)
heavy: VIHVTKEVKEVAKLSCGHNVSVEELAQTRIYWQKEKKMVLTTMSGDMNIWPEYKNRTIFDITNNLSIVILELRPSDEGTYECVVLKYEKDAFKREHLAEVTLSVKADGGGGSGGGGSGGGGSGGGGSGEVQLLESGGGLVQPGGSLRLSCAASGFTFSSYAMSWVRQAPGKGLEWVSGISGSGGFTYYADSVKGRFTISRDNSKNTLYLQMNSLRAEDTAVYYCAKPPRGYNYGPFDYWGQGTLVTVSSASTKGPSVFPLAPCSRSTSESTAALGCLVKDYFPEPVTVSWNSGALTSGVHTFPAVLQSSGLYSLSSVVTVPSSSLGTKTYTCNVDHKPSNTKVDKRVESKYGPPCPPCPAPEFLGGPSVFLFPPKPKDTLMISRTPEVTCVVVDVSQEDPEVQFNWYVDGVEVHNAKTKPREEQFNSTYRVVSVLAVLHQDWLNGKEYKCKVSNKGLPSSIEKTISKAKGQPREPQVYTLPPSQEEMTKNQVSLTCLVKGFYPSDIAVAWESNGQPENNYKTTPPVLDSDGSFFLYSRLTVDKSRWQEGNVFSCSVMHEALHAHYTQKSLSLSLGK
light: SYVLTQPPSVSVAPGQTARITCGGNNIGSKSVHWYQQKPGQAPVLVVYDDSDRPSGIPERFSGSNSGNTATLTISRVEAGDEADYYCQVWDSSSDHVVFGGGTKLTVLGQPKAAPSVTLFPPSSEELQANKATLVCLISDFYPGAVTVAWKADSSPVKAGVETTTPSKQSNNKYAASSYLSLTPEQWKSHRSYSCQVTHEGSTVEKTVAPTECS
notes: CD80 IgV mutant fused to the N-terminus of the sugemalimab heavy chain; also called CD80 IgV mutant T13K/M42T/A71E-sugemalimab fusion
Consider B5, for which the binding result in experiment [1] and in experiment [2] was “no binding” each time.

B6: Abs-263 (other)
heavy: VIHVTKEVKEVATLSCGHNVSVEELAQTRIYWQKEKKMVLTMMSGDMNIWPEYKNRTIFDITNNLSIVLLELRPSDEGTYECLVLKYEKDAFKREHLAEVTLSVKADGGGGSGGGGSGGGGSGGGGSGEVQLLESGGGLVQPGGSLRLSCAASGFTFSSYAMSWVRQAPGKGLEWVSGISGSGGFTYYADSVKGRFTISRDNSKNTLYLQMNSLRAEDTAVYYCAKPPRGYNYGPFDYWGQGTLVTVSSASTKGPSVFPLAPCSRSTSESTAALGCLVKDYFPEPVTVSWNSGALTSGVHTFPAVLQSSGLYSLSSVVTVPSSSLGTKTYTCNVDHKPSNTKVDKRVESKYGPPCPPCPAPEFLGGPSVFLFPPKPKDTLMISRTPEVTCVVVDVSQEDPEVQFNWYVDGVEVHNAKTKPREEQFNSTYRVVSVLAVLHQDWLNGKEYKCKVSNKGLPSSIEKTISKAKGQPREPQVYTLPPSQEEMTKNQVSLTCLVKGFYPSDIAVAWESNGQPENNYKTTPPVLDSDGSFFLYSRLTVDKSRWQEGNVFSCSVMHEALHAHYTQKSLSLSLGK
light: SYVLTQPPSVSVAPGQTARITCGGNNIGSKSVHWYQQKPGQAPVLVVYDDSDRPSGIPERFSGSNSGNTATLTISRVEAGDEADYYCQVWDSSSDHVVFGGGTKLTVLGQPKAAPSVTLFPPSSEELQANKATLVCLISDFYPGAVTVAWKADSSPVKAGVETTTPSKQSNNKYAASSYLSLTPEQWKSHRSYSCQVTHEGSTVEKTVAPTECS
notes: the paragraph that names the antibody is followed; also called CD80 IgV mutant I69L/A71E/V83L-sugemalimab fusion
With B6, in experiment [1], a half-maximal response (EC50) required 26.1 nM and the “binding strength @ 100nM” value turned out to be 333%. The binding result in experiment [2] is reported as “no binding”.

B7: Abs-268 (other)
heavy: VIHVTKEVKEVAKLSCGHNVSVEELAQTRIYWQKEKKMVLTTMSGDHNIWPEYKNRTIFDITNNLSIVILELRPSDEGTYECVVLKYEKDAFKREHLAEVTLSVKADGGGGSGGGGSGGGGSGGGGSGEVQLLESGGGLVQPGGSLRLSCAASGFTFSSYAMSWVRQAPGKGLEWVSGISGSGGFTYYADSVKGRFTISRDNSKNTLYLQMNSLRAEDTAVYYCAKPPRGYNYGPFDYWGQGTLVTVSSASTKGPSVFPLAPCSRSTSESTAALGCLVKDYFPEPVTVSWNSGALTSGVHTFPAVLQSSGLYSLSSVVTVPSSSLGTKTYTCNVDHKPSNTKVDKRVESKYGPPCPPCPAPEFLGGPSVFLFPPKPKDTLMISRTPEVTCVVVDVSQEDPEVQFNWYVDGVEVHNAKTKPREEQFNSTYRVVSVLAVLHQDWLNGKEYKCKVSNKGLPSSIEKTISKAKGQPREPQVYTLPPSQEEMTKNQVSLTCLVKGFYPSDIAVAWESNGQPENNYKTTPPVLDSDGSFFLYSRLTVDKSRWQEGNVFSCSVMHEALHAHYTQKSLSLSLGK
light: SYVLTQPPSVSVAPGQTARITCGGNNIGSKSVHWYQQKPGQAPVLVVYDDSDRPSGIPERFSGSNSGNTATLTISRVEAGDEADYYCQVWDSSSDHVVFGGGTKLTVLGQPKAAPSVTLFPPSSEELQANKATLVCLISDFYPGAVTVAWKADSSPVKAGVETTTPSKQSNNKYAASSYLSLTPEQWKSHRSYSCQVTHEGSTVEKTVAPTECS
notes: the paragraph that names the antibody is followed; also called CD80 IgV mutant T13K/M42T/M47H/A71E-sugemalimab fusion
For the molecule B7, the binding result in experiment [1] and in experiment [2] was “no binding” throughout.
